Assay results from publication PMC8413895.

Target: HIV-1 Env variant ADA.CM, trimer on virions (HIV-1 (ADA.CM))

4E10 Fab (parental, wild-type) gave an IC50 of neutralization of ADA.CM pseudovirus, TZM-bl assay of 2.7 mg/L.
